Experimental findings from paper PMC12102759 (2025) are described below.

To fix the notation:
B1: SH3BP2 peptide 410-425 (SH3 domain-binding protein 2), 16-mer library wild type / TNKS ANK (TNKS 12 ANK repeats, residues 174-649) (parent complex)
chain 1: LPHLQRSPPDGQSFRS
chain 2: TGVPAVSGALRELLEACRNGDVSRVKRLVDAANVNAKDMAGRKSSPLHFAAGFGRKDVVEHLLQMGANVHARDDGGLIPLHNACSFGHAEVVSLLLCQGADPNARDNWNYTPLHEAAIKGKIDVCIVLLQHGADPNIRNTDGKSALDLADPSAKAVLTGEYKKDELLEAARSGNEEKLMALLTPLNVNCHASDGRKSTPLHLAAGYNRVRIVQLLLQHGADVHAKDKGGLVPLHNACSYGHYEVTELLLKHGACVNAMDLWQFTPLHEAASKNRVEVCSLLLSHGADPTLVNCHGKSAVDMAPTPELRERLTYEFKGHSLLQAAREADLAKVKKTLALEIINFKQPQSHETALHCAVASLHPKRKQVTELLLRKGANVNEKNKDFMTPLHVAAERAHNDVMEVLHKHGAKMNALDTLGQTALHRAALAGHLQTCRLLLSYGSDPSIISLQGFTAAQMGNEAVQQILSESTPIRTSD

The variants in the assay derive from B1. Put plainly: proteomic peptide phage display deep mutational scan (ProP-PD DMS): M13 P8 16-mer library selected against immobilised GST-tagged bait for four days (rounds), NGS of the eluted pools per day and pseudo-replica; bait immobilised on MaxiSorp plates (10 µg), library pre-cleared on GST, 2 h binding at 4 °C, five washes; one round per day, days 1-4; value from days 2 and 3.
Regarding chain 1 P8Q, the screen value is 0.00268 average fractional NGS count over selection days 2 and 3 (reads of this peptide / all reads for the bait, averaged over ….

For the variant chain 1 P8L, the screen value is 0.00187 average fractional NGS count over selection days 2 and 3 (reads of this peptide / all reads for the bait, averaged over ….

In the case of chain 1 P8Y, the screen value was 0.000667 average fractional NGS count over selection days 2 and 3 (reads of this peptide / all reads for the bait, averaged over ….

In the case of chain 1 P8T, the screen value is 0.00538 average fractional NGS count over selection days 2 and 3 (reads of this peptide / all reads for the bait, averaged over ….

Regarding chain 1 P8V, the screen value is 0.00324 average fractional NGS count over selection days 2 and 3 (reads of this peptide / all reads for the bait, averaged over ….

chain 1 P8K: the screen value was 0.000693 average fractional NGS count over selection days 2 and 3 (reads of this peptide / all reads for the bait, averaged over ….

On to chain 1 P8S, for which the screen value is 0.000677 average fractional NGS count over selection days 2 and 3 (reads of this peptide / all reads for the bait, averaged over ….

Take chain 1 P8N: the screen value was 0.0021 average fractional NGS count over selection days 2 and 3 (reads of this peptide / all reads for the bait, averaged over ….

Turning to chain 1 P8D, the screen value was 0.00888 average fractional NGS count over selection days 2 and 3 (reads of this peptide / all reads for the bait, averaged over ….

chain 1 P8H: the screen value is 0.000697 average fractional NGS count over selection days 2 and 3 (reads of this peptide / all reads for the bait, averaged over ….

chain 1 P8M: the screen value is 0.00437 average fractional NGS count over selection days 2 and 3 (reads of this peptide / all reads for the bait, averaged over ….

For chain 1 F14P, the screen value was 0.000325 average fractional NGS count over selection days 2 and 3 (reads of this peptide / all reads for the bait, averaged over ….

For the variant chain 1 F14V, the screen value was 0.000585 average fractional NGS count over selection days 2 and 3 (reads of this peptide / all reads for the bait, averaged over ….

On to chain 1 F14I, for which the screen value is 0.00763 average fractional NGS count over selection days 2 and 3 (reads of this peptide / all reads for the bait, averaged over ….

Consider chain 1 F14A, for which the screen value is 0.0212 average fractional NGS count over selection days 2 and 3 (reads of this peptide / all reads for the bait, averaged over ….

For the variant chain 1 F14L, the screen value is 0.000394 average fractional NGS count over selection days 2 and 3 (reads of this peptide / all reads for the bait, averaged over ….

Regarding chain 1 F14T, the screen value was 0.0022 average fractional NGS count over selection days 2 and 3 (reads of this peptide / all reads for the bait, averaged over ….

For chain 1 F14M, the screen value was 0.0018 average fractional NGS count over selection days 2 and 3 (reads of this peptide / all reads for the bait, averaged over ….

On to chain 1 F14N, for which the screen value was 0.000125 average fractional NGS count over selection days 2 and 3 (reads of this peptide / all reads for the bait, averaged over ….

As for chain 1 F14D, the screen value is 0.000786 average fractional NGS count over selection days 2 and 3 (reads of this peptide / all reads for the bait, averaged over ….

Consider chain 1 F14G, for which the screen value is 0.000932 average fractional NGS count over selection days 2 and 3 (reads of this peptide / all reads for the bait, averaged over ….

As for chain 1 F14Q, the screen value was 0.000155 average fractional NGS count over selection days 2 and 3 (reads of this peptide / all reads for the bait, averaged over ….

In the case of chain 1 F14H, the screen value is 0.000634 average fractional NGS count over selection days 2 and 3 (reads of this peptide / all reads for the bait, averaged over ….

On to chain 1 F14E, for which the screen value is 0.00017 average fractional NGS count over selection days 2 and 3 (reads of this peptide / all reads for the bait, averaged over ….

As for chain 1 F14S, the screen value is 0.00286 average fractional NGS count over selection days 2 and 3 (reads of this peptide / all reads for the bait, averaged over ….

Take chain 1 Q12M: the screen value is 0.00481 average fractional NGS count over selection days 2 and 3 (reads of this peptide / all reads for the bait, averaged over ….

chain 1 Q12G: the screen value is 0.000919 average fractional NGS count over selection days 2 and 3 (reads of this peptide / all reads for the bait, averaged over ….

As for chain 1 Q12W, the screen value is 0.000548 average fractional NGS count over selection days 2 and 3 (reads of this peptide / all reads for the bait, averaged over ….

With chain 1 Q12Y, the screen value was 0.000794 average fractional NGS count over selection days 2 and 3 (reads of this peptide / all reads for the bait, averaged over ….

As for chain 1 Q12E, the screen value was 0.000127 average fractional NGS count over selection days 2 and 3 (reads of this peptide / all reads for the bait, averaged over ….

As to chain 1 Q12S, the screen value is 0.000969 average fractional NGS count over selection days 2 and 3 (reads of this peptide / all reads for the bait, averaged over ….

As to chain 1 Q12F, the screen value is 0.000426 average fractional NGS count over selection days 2 and 3 (reads of this peptide / all reads for the bait, averaged over ….

Turning to chain 1 Q12T, the screen value was 0.00582 average fractional NGS count over selection days 2 and 3 (reads of this peptide / all reads for the bait, averaged over ….

For chain 1 Q12V, the screen value is 0.000654 average fractional NGS count over selection days 2 and 3 (reads of this peptide / all reads for the bait, averaged over ….

Consider chain 1 Q12I, for which the screen value is 0.000382 average fractional NGS count over selection days 2 and 3 (reads of this peptide / all reads for the bait, averaged over ….

Take chain 1 Q12A: the screen value is 0.00503 average fractional NGS count over selection days 2 and 3 (reads of this peptide / all reads for the bait, averaged over ….

chain 1 R15W: the screen value was 0.000302 average fractional NGS count over selection days 2 and 3 (reads of this peptide / all reads for the bait, averaged over ….

In the case of chain 1 R15H, the screen value was 0.00172 average fractional NGS count over selection days 2 and 3 (reads of this peptide / all reads for the bait, averaged over ….

As for chain 1 R15F, the screen value is 0.000621 average fractional NGS count over selection days 2 and 3 (reads of this peptide / all reads for the bait, averaged over ….

Take chain 1 R15N: the screen value is 0.000839 average fractional NGS count over selection days 2 and 3 (reads of this peptide / all reads for the bait, averaged over ….

As for chain 1 R15V, the screen value was 0.00361 average fractional NGS count over selection days 2 and 3 (reads of this peptide / all reads for the bait, averaged over ….

As for chain 1 R15E, the screen value was 0.0203 average fractional NGS count over selection days 2 and 3 (reads of this peptide / all reads for the bait, averaged over ….

As to chain 1 R15A, the screen value was 0.000604 average fractional NGS count over selection days 2 and 3 (reads of this peptide / all reads for the bait, averaged over ….

For chain 1 R15D, the screen value was 0.000883 average fractional NGS count over selection days 2 and 3 (reads of this peptide / all reads for the bait, averaged over ….

As to chain 1 R15S, the screen value is 0.00343 average fractional NGS count over selection days 2 and 3 (reads of this peptide / all reads for the bait, averaged over ….

For the variant chain 1 R15T, the screen value was 0.00759 average fractional NGS count over selection days 2 and 3 (reads of this peptide / all reads for the bait, averaged over ….

As for chain 1 R15Q, the screen value was 0.000422 average fractional NGS count over selection days 2 and 3 (reads of this peptide / all reads for the bait, averaged over ….

Regarding chain 1 R15I, the screen value was 0.00013 average fractional NGS count over selection days 2 and 3 (reads of this peptide / all reads for the bait, averaged over ….

As for chain 1 R15G, the screen value is 0.00618 average fractional NGS count over selection days 2 and 3 (reads of this peptide / all reads for the bait, averaged over ….

Take chain 1 R15P: the screen value was 0.00212 average fractional NGS count over selection days 2 and 3 (reads of this peptide / all reads for the bait, averaged over ….

On to chain 1 R15K, for which the screen value is 0.00112 average fractional NGS count over selection days 2 and 3 (reads of this peptide / all reads for the bait, averaged over ….

As to chain 1 R15M, the screen value was 0.00237 average fractional NGS count over selection days 2 and 3 (reads of this peptide / all reads for the bait, averaged over ….

As to chain 1 R15L, the screen value is 0.000467 average fractional NGS count over selection days 2 and 3 (reads of this peptide / all reads for the bait, averaged over ….

For chain 1 G11N, the screen value is 0.000201 average fractional NGS count over selection days 2 and 3 (reads of this peptide / all reads for the bait, averaged over ….

Take chain 1 P2G: the screen value was 0.000225 average fractional NGS count over selection days 2 and 3 (reads of this peptide / all reads for the bait, averaged over ….

For the variant chain 1 P2E, the screen value is 0.000462 average fractional NGS count over selection days 2 and 3 (reads of this peptide / all reads for the bait, averaged over ….

With chain 1 P2M, the screen value is 0.000224 average fractional NGS count over selection days 2 and 3 (reads of this peptide / all reads for the bait, averaged over ….

For the variant chain 1 P2H, the screen value is 0.000416 average fractional NGS count over selection days 2 and 3 (reads of this peptide / all reads for the bait, averaged over ….

Consider chain 1 P2A, for which the screen value is 0.00048 average fractional NGS count over selection days 2 and 3 (reads of this peptide / all reads for the bait, averaged over ….

chain 1 P2L: the screen value was 0.000238 average fractional NGS count over selection days 2 and 3 (reads of this peptide / all reads for the bait, averaged over ….

For chain 1 P2T, the screen value is 0.00034 average fractional NGS count over selection days 2 and 3 (reads of this peptide / all reads for the bait, averaged over ….

For chain 1 P2F, the screen value was 0.00201 average fractional NGS count over selection days 2 and 3 (reads of this peptide / all reads for the bait, averaged over ….

As to chain 1 P2D, the screen value is 0.00379 average fractional NGS count over selection days 2 and 3 (reads of this peptide / all reads for the bait, averaged over ….

Turning to chain 1 L1Y, the screen value is 0.00138 average fractional NGS count over selection days 2 and 3 (reads of this peptide / all reads for the bait, averaged over ….

Turning to chain 1 L1G, the screen value was 0.000775 average fractional NGS count over selection days 2 and 3 (reads of this peptide / all reads for the bait, averaged over ….

On to chain 1 L1I, for which the screen value was 0.00049 average fractional NGS count over selection days 2 and 3 (reads of this peptide / all reads for the bait, averaged over ….

In the case of chain 1 L1E, the screen value was 0.00294 average fractional NGS count over selection days 2 and 3 (reads of this peptide / all reads for the bait, averaged over ….

For the variant chain 1 L1H, the screen value was 0.00559 average fractional NGS count over selection days 2 and 3 (reads of this peptide / all reads for the bait, averaged over ….

Regarding chain 1 L1F, the screen value is 0.000588 average fractional NGS count over selection days 2 and 3 (reads of this peptide / all reads for the bait, averaged over ….

As for chain 1 L1W, the screen value was 0.000782 average fractional NGS count over selection days 2 and 3 (reads of this peptide / all reads for the bait, averaged over ….

Consider chain 1 L1R, for which the screen value was 0.000257 average fractional NGS count over selection days 2 and 3 (reads of this peptide / all reads for the bait, averaged over ….

Turning to chain 1 L1A, the screen value was 0.00143 average fractional NGS count over selection days 2 and 3 (reads of this peptide / all reads for the bait, averaged over ….

In the case of chain 1 L1P, the screen value was 0.000357 average fractional NGS count over selection days 2 and 3 (reads of this peptide / all reads for the bait, averaged over ….

Consider chain 1 L1S, for which the screen value is 0.00146 average fractional NGS count over selection days 2 and 3 (reads of this peptide / all reads for the bait, averaged over ….

Regarding chain 1 L1K, the screen value is 0.000567 average fractional NGS count over selection days 2 and 3 (reads of this peptide / all reads for the bait, averaged over ….
